Assays:
CHIR-induced hPSCs = test: Growth factor screen for PAX2 induction in CHIR-induced mesendodermal cells (immunostaining); assay type: cell-based, human; conditions: day 4
Protocol: For immunofluorescence studies, cultures are washed once with PBS (Invitrogen) and fixed in 4% paraformaldehyde for 15 min at room temperature (RT). Fixed cells are then washed three times in PBS and incubated in blocking buffer (0.3% Triton X-100 (Fisher Scientific) and 5% normal donkey serum (EMD Millipore) in PBS) for 1 hour at RT.
The cells are then incubated with primary antibody overnight at 4° C. or for 2 hours at RT in antibody dilution buffer (0.3% Triton X-100 and 1% BSA (Roche) in PBS). Cells are then washed three times in PBS and incubated with Alexa Fluor 488-, 555-, or 647-conjugated secondary antibodies (1:500) (Molecular Probes) in antibody dilution buffer for 1 hour at RT. For immunostaining with Biotinylated Lotus Tetragonolobus Lectin (LTL, Vector Labs), a Streptavidin/Biotin Blocking Kit (Vector Labs) and Alexa Fluor 488- or 647-conjugated Streptavidin (Molecular Probes) were used according to manufacturer's instructions.
Nuclei can be counterstained with DAPI (Sigma). […] Immunofluorescence is visualized using an inverted fluorescence microscope (Nikon Eclipse Ti, Tokyo, Japan). Quantification is performed by counting a minimum of five random fields at 10× magnification.
PAX2 is selected since it is an early marker of IM, and, unlike the markers OSR1 or LHX1 which are also expressed in the adjacent lateral plate mesoderm, PAX2 expression is restricted in mesoderm to the IM.

[1] = tested on: hPSCs (hESC and hiPSC lines); test: Intermediate mesoderm differentiation: PAX2/LHX1 immunostaining; assay type: cell-based, human; conditions: BMP-7 added to FGF2 and RA after CHIR 36 hours, day 3
Protocol: Mesendoderm differentiation—the media is changed to Advanced RPMI (A-RPMI, Invitrogen) supplemented with 1×L-glutamax and 1× penicillin/streptomycin and either CHIR99021 (CHIR, Stemgent), human Wnt3a (R&D systems), and/or human activin A (R&D systems) at the doses described. Definitive endoderm differentiation—cells are treated with A-RPMI+1×L-glu+1×P/S+5 μM CHIR for 24 hours, then A-RPMI+1×Lglu+1×P/S+100 ng/mL of activin A for 2-3 days. Hepatic differentiation—cells at the definitive endoderm stage are treated with A-RPMI+1×L-glu+1×P/S+1×B27 supplement (Invitrogen)+20 ng/mL BMP-4 (R&D systems)+10 ng/mL FGF2 (Invitrogen) for 5 days, then A-RPMI+1×L-glu+1×P/S+1×B27+10 ng/mL HGF for 5 days, then HCM Hepatocyte Culture Medium (Lonza) supplemented with 20 ng/mL Oncostatin M and 10 ng/mL HGF (Peprotech) for 5 days. Pancreatic differentiation—cells at the definitive endoderm stage are treated with DMEM/F12+2% FBS (Hyclone)+50 ng/mL FGF7 (R&D systems) for 2 days, then high-glucose DMEM (Mediatech)+1% B27+2 μM retinoic acid (Sigma)+0.25 μM KAAD cyclopamine (EMD Millipore)+100 ng/mL recombinant human Noggin (R&D systems) for 4 days, then high-glucose DMEM+1% B27+100 ng/mL Noggin+300 nM indolactam V (Stemgent)+1 μM ALK5 inhibitor II (Axxora) for 4 days. Anterior foregut endoderm differentiation—cells at the definitive endoderm stage are treated with DMEM/F12+1×L-glu+1×B27+200 ng/mL Noggin+10 μM SB431542 (Stemgent) for 3 days. For hindgut endoderm differentiation, cells at the definitive endoderm stage were treated with A-RPMI+1×L-glu+1×P/S+2% FBS+500 ng/mL FGF4 (R&D systems)+5 μM CHIR for 4 days. […]
Nuclei can be counterstained with DAPI (Sigma). […] Immunofluorescence is visualized using an inverted fluorescence microscope (Nikon Eclipse Ti, Tokyo, Japan). Quantification is performed by counting a minimum of five random fields at 10× magnification. […]

[2] = tested on: human pluripotent stem cells (hPSCs); test: Mesendoderm induction: BRACHYURY immunofluorescence in hPSCs; assay type: cell-based; conditions: WNT3A alone 500 ng/mL, 24 hours of treatment
Protocol: For differentiation experiments, hESCs or hiPSCs can be grown on Geltrex, washed once with PBS and dissociated into single cells with Accutase ([…] Technologies). Cells are plated at a density of 4×10^4 cells/cm^2 onto Geltrex-coated plates in mTeSR1 medium supplemented with the ROCK inhibitor Y27632 10 μM (Stemgent). Cells are fed daily with mTeSR1 without Y27632 for 2-3 days until they reached 50% confluency. Mesendoderm differentiation-the media is changed to Advanced RPMI (A-RPMI, Invitrogen) supplemented with 1×L-glutamax and 1× penicillin/streptomycin and either CHIR99021 (CHIR, Stemgent), human Wnt3a (R&D systems), and/or human activin A (R&D systems) at the doses described. Definitive endoderm differentiation-cells are treated with […] for 24 hours, then […]+100 ng/mL of activin A for 2-3 days. Hepatic differentiation-cells at the definitive endoderm stage are treated with […]27 supplement (Invitrogen)+20 ng/mL BMP-4 (R&D systems)+10 ng/mL FGF2 (Invitrogen) for 5 days, then […]27+10 ng/mL HGF for 5 days, then HCM Hepatocyte Culture Medium (Lonza) supplemented with 20 ng/mL Oncostatin M and 10 ng/mL HGF (Peprotech) for 5 days. Pancreatic differentiation-cells at the definitive endoderm stage are treated with DMEM/F12+2% FBS (Hyclone)+50 ng/mL FGF7 (R&D systems) for 2 days, then high-glucose DMEM (Mediatech)+1% B27+2 μM retinoic acid (Sigma)+0.25 μM KAAD cyclopamine (EMD Millipore)+100 ng/mL recombinant human Noggin (R&D systems) for 4 days, then high-glucose DMEM+1% B27+100 ng/mL Noggin+300 nM indolactam V (Stemgent)+1 μM ALK5 inhibitor II (Axxora) for 4 days. Anterior foregut endoderm differentiation-cells at the definitive endoderm stage are treated with DMEM/F12+1×L-glu+1×B27+200 ng/mL Noggin+10 μM SB431542 (Stemgent) for 3 days. […] Immunofluorescence is visualized using an inverted fluorescence microscope (Nikon Eclipse Ti, Tokyo, Japan). Quantification is performed by counting a minimum of five random fields at 10× magnification. […]

Molecule: FGF2: fibroblast growth factor-2
- cells positive for PAX2 by immunostaining (CHIR-induced hPSCs; CHIR 24 hours then FGF2 100 ng/mL): 50-60%
- PAX2 expression (CHIR-induced hPSCs; FGF2 added to hPSCs not initially induced with CHIR): absence of PAX2 expression

B1: BMP-4: candidate growth factor screened for PAX2 induction (protein, UniProt P12644 293-408, looked up)
Bone morphogenetic protein 4: SPKHHSQRARKKNKNCRRHSLYVDFSDVGWNDWIVAPPGYQAFYCHGDCPFPLADHLNSTNHAIVQTLVNSVNSSIPKACCVPTELSAISMLYLDEYDKVVLKNYQEMVVEGCGCR
- PAX2 expression (CHIR-induced hPSCs; CHIR 24 hours then increasing doses of factor): no PAX2 expression

B2: BMP-7: candidate growth factor screened for PAX2 induction (protein, UniProt P18075 293-431, looked up)
Bone morphogenetic protein 7: STGSKQRSQNRSKTPKNQEALRMANVAENSSSDQRQACKKHELYVSFRDLGWQDWIIAPEGYAAYYCEGECAFPLNSYMNATNHAIVQTLVHFINPETVPKPCCAPTQLNAISVLYFDDSSNVILKKYRNMVVRACGCH
- expression of LHX1 [1]: minimal effect
- percentage of cells expressing PAX2 [1]: significantly decreased
- PAX2 expression compared to vehicle control (CHIR-induced hPSCs; CHIR 24 hours then low doses of factor): modest increases

B3: WNT3A: wingless-type MMTV integration site family, member 3A; human Wnt3a (R&D systems) (protein, UniProt P56704 19-352, looked up)
Protein Wnt-3a: SYPIWWSLAVGPQYSSLGSQPILCASIPGLVPKQLRFCRNYVEIMPSVAEGIKIGIQECQHQFRGRRWNCTTVHDSLAIFGPVLDKATRESAFVHAIASAGVAFAVTRSCAEGTAAICGCSSRHQGSPGKGWKWGGCSEDIEFGGMVSREFADARENRPDARSAMNRHNNEAGRQAIASHMHLKCKCHGLSGSCEVKTCWWSQPDFRAIGDFLKDKYDSASEMVVEKHRESRGWVETLRPRYTYFKVPTERDLVYYEASPNFCEPNPETGSFGTRDRTCNVSSHGIDGCDLLCCGRGHNARAERRREKCRCVFHWCCYVSCQECTRVYDVHTCK
- cells expressing BRACHY [2]: 26.7±1.9%

Source: US20160272937A1, “METHODS OF GENERATING INTERMEDIATE MESODERM CELLS FROM HUMAN PLURIPOTENT STEM CELLS” (THE BRIGHAM AND WOMEN'S HOSPITAL, INC., priority 2013, published 2016)
